Assay results as given in publication PMC9709071.
pEC50: −log10 of the molar value.

Key:
DcR3 = DcR3 (UniProt O95407); test: ELISA; receptor (DR3-Fc; DcR3) immobilised on Maxisorp plates, TL1A variant titrated in 3-fold dilutions, overnight 4 °C, detected with anti-human TL1A-biotin and streptavidin-HRP; concentrations normalised to TL1A trimer; triplicate
Recombinant DR3-Fc [1] = target: Recombinant DR3-Fc (UniProt Q93038); test: as above
Recombinant DR3-Fc [2] = target: Recombinant DR3-Fc (UniProt Q93038); test: ELISA; DR3-Fc immobilised non-specifically on Maxisorp plates (overnight, 4 °C), casein block; TL1A added in 3-fold dilutions, overnight 4 °C; bound TL1A detected with polyclonal rabbit anti-human TL1A-biotin and streptavidin-HRP; concentrations normalised to TL1A trimers; triplicate

Recombinant DR3-Fc, sequence (Q93038 25-199): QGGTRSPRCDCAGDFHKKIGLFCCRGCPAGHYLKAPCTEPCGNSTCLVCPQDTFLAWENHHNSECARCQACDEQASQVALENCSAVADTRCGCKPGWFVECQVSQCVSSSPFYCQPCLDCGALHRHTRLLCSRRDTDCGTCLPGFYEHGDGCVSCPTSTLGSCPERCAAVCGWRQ
DcR3, sequence (O95407 30-300): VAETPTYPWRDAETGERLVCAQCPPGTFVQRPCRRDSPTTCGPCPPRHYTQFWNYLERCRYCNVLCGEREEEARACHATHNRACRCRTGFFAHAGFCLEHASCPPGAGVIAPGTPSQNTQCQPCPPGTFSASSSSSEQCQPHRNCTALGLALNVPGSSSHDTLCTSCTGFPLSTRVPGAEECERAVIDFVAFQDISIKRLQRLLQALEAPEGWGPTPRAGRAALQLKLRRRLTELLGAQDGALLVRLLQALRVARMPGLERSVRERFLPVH

| pEC50 (DcR3) | pEC50 (Recombinant DR3-Fc [1]) | pEC50 (Recombinant DR3-Fc [2]) | Substance |
| --- | --- | --- | --- |
| 8.07 | 7.57 |  | TL1W123 (N207S) (from UniProt O95150 1-251) (ligand) |
|  |  | 7.56 | His-scTL1A TL1W19 (from UniProt O95150 84-251; O95150 84-251; O95150 84-251) (ligand) |
| 7.94 | 7.24 |  | TL1W103 (T185A) (from UniProt O95150 1-251) (ligand) |
| 7.51 | 6.55 |  | TL1W24 (F209A) (from UniProt O95150 1-251) (ligand) |
| 8.54 |  |  | TL1W86 (G124K) (from UniProt O95150 1-251) (ligand) |
|  |  | 7.53 | HSA-scTL1A (TL1W15) (from UniProt O95150 84-251; O95150 84-251; O95150 84-251) (ligand) |
| 7.93 | 6.47 |  | TL1W137 (K240S) (from UniProt O95150 1-251) (ligand) |
| 7.87 |  |  | TL1W88 (R156A) (from UniProt O95150 1-251) (ligand) |
| 8.24 |  |  | TL1W33 (E241L) (from UniProt O95150 1-251) (ligand) |
| 7.73 | 7.23 |  | TL1W94 (M158E) (from UniProt O95150 1-251) (ligand) |
| 7.86 | 7.25 |  | TL1W126 (F209W) (from UniProt O95150 1-251) (ligand) |
| 7.14 | 6.68 |  | TL1W43 (Y188S) (from UniProt O95150 1-251) (ligand) |
| 7.79 | 7.51 |  | TL1W40 (L123S) (from UniProt O95150 1-251) (ligand) |
| 8.09 | 7.11 |  | TL1W78 (R103H) (from UniProt O95150 1-251) (ligand) |
| 8.09 | 7.06 |  | TL1W119 (S206F) (from UniProt O95150 1-251) (ligand) |
| 7.79 | 7.06 |  | TL1W96 (R170E) (from UniProt O95150 1-251) (ligand) |
|  | 7.83 |  | TL1W87 (G124D) (from UniProt O95150 1-251) (ligand) |
| 8.43 | 7.87 |  | TL1W25 (N207A) (from UniProt O95150 1-251) (ligand) |
| 7.18 | 6.69 |  | TL1W112 (P189F) (from UniProt O95150 1-251) (ligand) |
| 7.81 | 6.96 |  | TL1W124 (N207k) (from UniProt O95150 1-251) (ligand) |
| 7.56 | 5.69 |  | TL1W98 (K173R) (from UniProt O95150 1-251) (ligand) |
| 5.88 | 6.59 |  | TL1W47 (E241A) (from UniProt O95150 1-251) (ligand) |
| 7.25 | 7.65 |  | TL1W93 (M158K) (from UniProt O95150 1-251) (ligand) |
| 7.76 | 6.98 |  | TL1W121 (S206E) (from UniProt O95150 1-251) (ligand) |
| 7.96 | 6.73 |  | TL1W90 (R156K) (from UniProt O95150 1-251) (ligand) |
| 8.12 | 6.15 |  | TL1W29 (P189A) (from UniProt O95150 1-251) (ligand) |
| 7.98 |  |  | TL1W128 (Y238S) (from UniProt O95150 1-251) (ligand) |

| pEC50 (DcR3) | pEC50 (Recombinant DR3-Fc [1]) | pEC50 (Recombinant DR3-Fc [2]) | Substance |
| --- | --- | --- | --- |
| 8.15 | 6.69 |  | TL1W79 (R103E) (from UniProt O95150 1-251) (ligand) |
| 7.97 | 7.85 |  | TL1W115 (T192F) (from UniProt O95150 1-251) (ligand) |
| 7.23 |  |  | TL1W138 (K240D) (from UniProt O95150 1-251) (ligand) |
| 7.92 | 6.95 |  | TL1W117 (T192E) (from UniProt O95150 1-251) (ligand) |
| 8.05 | 6.35 |  | TL1W129 (Y238K) (from UniProt O95150 1-251) (ligand) |
| 8.33 | 7.79 |  | TL1W30 (N112E) (from UniProt O95150 1-251) (ligand) |
| 7.23 | 6.78 |  | TL1W44 (P189K) (from UniProt O95150 1-251) (ligand) |
| 8.05 | 5.33 |  | TL1W127 (Y238A) (from UniProt O95150 1-251) (ligand) |
| 8.60 | 8.02 |  | TL1W31 (R103Q) (from UniProt O95150 1-251) (ligand) |
| 8.24 | 7.65 |  | TL1W28 (E190G) (from UniProt O95150 1-251) (ligand) |
| 7.04 | 6.94 |  | TL1W120 (S206K) (from UniProt O95150 1-251) (ligand) |
| 7.70 | 6.00 |  | TL1W113 (P189S) (from UniProt O95150 1-251) (ligand) |
|  |  | 7.99 | Fc-His-TL1A (TL1W61) (complex) |
| 8.06 | 7.38 |  | TL1W118 (S206A) (from UniProt O95150 1-251) (ligand) |
| 8.07 |  |  | TL1W135 (K240A) (from UniProt O95150 1-251) (ligand) |
| 7.95 | 6.75 |  | TL1W105 (T185N) (from UniProt O95150 1-251) (ligand) |
| 7.46 |  |  | TL1W27 (T239E) (from UniProt O95150 1-251) (ligand) |
|  | 7.41 |  | TL1W108 (S187A) (from UniProt O95150 1-251) (ligand) |
| 7.80 | 7.47 |  | TL1W110 (S187K) (from UniProt O95150 1-251) (ligand) |
| 8.48 | 7.60 |  | TL1W33 (R103A) (from UniProt O95150 1-251) (ligand) |
| 7.42 | 6.73 |  | TL1W39 (L123G) (from UniProt O95150 1-251) (ligand) |
| 8.01 | 6.30 |  | TL1W125 (N207E) (from UniProt O95150 1-251) (ligand) |
| 8.12 | 6.25 |  | TL1W32 (Y188A) (from UniProt O95150 1-251) (ligand) |
| 7.82 | 6.49 |  | TL1W100 (S176L) (from UniProt O95150 1-251) (ligand) |
| 7.57 | 6.84 |  | TL1W132 (T239A) (from UniProt O95150 1-251) (ligand) |
| 8.08 |  |  | TL1W91 (R156E) (from UniProt O95150 1-251) (ligand) |
| 7.94 | 7.46 |  | TL1W99 (S176A) (from UniProt O95150 1-251) (ligand) |

| pEC50 (DcR3) | pEC50 (Recombinant DR3-Fc [1]) | pEC50 (Recombinant DR3-Fc [2]) | Substance |
| --- | --- | --- | --- |
| 7.78 | 7.35 |  | TL1W111 (S187D) (from UniProt O95150 1-251) (ligand) |
| 7.25 | 6.74 |  | TL1W84 (E120H) (from UniProt O95150 1-251) (ligand) |
| 8.17 | 6.88 |  | TL1W97 (K173S) (from UniProt O95150 1-251) (ligand) |
| 7.94 | 7.11 |  | TL1W42 (F114A) (from UniProt O95150 1-251) (ligand) |
| 8.21 | 7.20 |  | TL1W107 (D186Y) (from UniProt O95150 1-251) (ligand) |
| 7.97 |  |  | TL1W133 (T239F) (from UniProt O95150 1-251) (ligand) |
| 6.75 | 6.58 |  | TL1W136 (K240F) (from UniProt O95150 1-251) (ligand) |
|  | 6.55 |  | TL1W46 (T239W) (from UniProt O95150 1-251) (ligand) |
| 7.97 | 7.59 |  | TL1W82 (K111E) (from UniProt O95150 1-251) (ligand) |
| 8.18 | 6.52 |  | TL1W131 (Y238E) (from UniProt O95150 1-251) (ligand) |
| 7.63 | 7.11 |  | TL1W116 (T192K) (from UniProt O95150 1-251) (ligand) |
| 7.10 | 6.91 |  | TL1W106 (T185D) (from UniProt O95150 1-251) (ligand) |
| 8.00 | 7.63 |  | TL1W114 (T192A) (from UniProt O95150 1-251) (ligand) |
| 7.24 | 6.53 |  | TL1W85 (G124S) (from UniProt O95150 1-251) (ligand) |
| 7.76 |  |  | TL1W139 (E241Q) (from UniProt O95150 1-251) (ligand) |
| 7.71 | 7.31 |  | TL1W104 (T185L) (from UniProt O95150 1-251) (ligand) |
| 7.49 | 7.00 |  | TL1W41 (E120A) (from UniProt O95150 1-251) (ligand) |
| 8.10 |  |  | TL1W89 (R156Y) (from UniProt O95150 1-251) (ligand) |
| 8.66 |  |  | TL1W83 (E120K) (from UniProt O95150 1-251) (ligand) |
| 7.29 | 7.46 |  | TL1W81 (K111S) (from UniProt O95150 1-251) (ligand) |
| 7.77 |  |  | TL1W130 (Y238R) (from UniProt O95150 1-251) (ligand) |
| 7.67 |  |  | TL1W134 (T239K) (from UniProt O95150 1-251) (ligand) |
| 7.69 |  |  | TL1W101 (S176N) (from UniProt O95150 1-251) (ligand) |
| 7.53 | 6.74 |  | TL1W102 (S176K) (from UniProt O95150 1-251) (ligand) |
| 7.61 | 6.37 |  | TL1W37 (L123E) (from UniProt O95150 1-251) (ligand) |
